The target in series [1] is T1, L-AAO/MOG (Pseudomonas sp. AIU 813, UniProt W6JQJ6).
T1 construct: gene laao; N-terminally His-tagged, pET15b-laao/mog, expressed in E. coli; homodimer with FAD
T1 sequence (W6JQJ6 1-560): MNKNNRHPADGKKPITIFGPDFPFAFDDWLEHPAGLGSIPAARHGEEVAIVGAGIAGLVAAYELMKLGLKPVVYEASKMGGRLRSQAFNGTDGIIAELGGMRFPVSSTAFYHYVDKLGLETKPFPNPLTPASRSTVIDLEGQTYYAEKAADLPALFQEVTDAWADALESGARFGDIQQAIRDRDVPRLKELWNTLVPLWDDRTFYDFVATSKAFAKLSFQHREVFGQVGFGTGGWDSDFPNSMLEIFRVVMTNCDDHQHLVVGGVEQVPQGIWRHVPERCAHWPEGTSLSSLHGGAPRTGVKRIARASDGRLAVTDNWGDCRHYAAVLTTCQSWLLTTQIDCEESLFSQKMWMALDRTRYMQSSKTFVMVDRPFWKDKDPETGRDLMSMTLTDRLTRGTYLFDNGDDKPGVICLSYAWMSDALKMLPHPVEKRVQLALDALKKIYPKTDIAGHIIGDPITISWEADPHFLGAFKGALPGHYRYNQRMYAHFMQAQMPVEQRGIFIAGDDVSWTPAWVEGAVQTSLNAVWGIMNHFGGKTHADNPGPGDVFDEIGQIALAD
Description: X-ray crystal structure, […] Å. To be noted: bound cofactor; redox state mixed or uncertain; L-Lys complex. Format: binding.

Series [2] has as its target T1, L-AAO/MOG. Description: X-ray crystal structure, soaking, […] Å. The format is binding. To be noted: active site, also second site; 20 mM soak; density relatively ambiguous; modelled as unreacted substrate.
The target of series [3] is T1, L-AAO/MOG. The series is described as follows: X-ray crystal structure, soaking, […] Å. Format: binding. To be noted: active site, also second site at dimer interface; 10 mM soak; modelled as unreacted substrate, redox state uncertain.
Series [4] has as its target T1, L-AAO/MOG. The series is described as follows: X-ray crystal structure, soaking, […] Å. To be noted: active site, also second site; 20 mM soak; density relatively ambiguous; modelled as unreacted substrate. Format: binding. This is another data set of the same source.
A further series has as its system T2, NCCCC[C@H](N)C(=O)O.
T2 construct: N-terminally His-tagged, pET15b-laao/mog, expressed in E. coli; homodimer with FAD
The series is described as follows: purified protein. Format: biochemical, Pseudomonas sp. AIU 813. To be noted: 100 mM potassium phosphate pH 7.0, 30 °C.

Another series deals with T3, N=C(N)NCCC[C@H](N)C(=O)O.
T3 construct: N-terminally His-tagged, pET15b-laao/mog, expressed in E. coli; homodimer with FAD
The series is described as follows: purified protein. The format is biochemical, Pseudomonas sp. AIU 813. To be noted: oxidase reaction, borate-NaOH pH 9.0, 30 °C, pH 9.0.

Substrate in series [5]: N=C(N)NCCC[C@H](N)C(=O)O
The series is described as follows: purified protein. The format is biochemical, Pseudomonas sp. AIU 813. To be noted: borate-NaOH pH 9.0, 30 °C, pH 9.0.

Substrate in series [6]: NCCCC[C@H](N)C(=O)O
The series is described as follows: purified protein. The format is biochemical, Pseudomonas sp. AIU 813. To be noted: 100 mM potassium phosphate pH 7.0, 30 °C, pH 7.0.

Substrate in series [7]: NCCC[C@H](N)C(=O)O
Description: purified protein. To be noted: borate-NaOH pH 9.0, 30 °C.

Series [8] concerns the molecule itself. Description: crystal structure; sitting-drop vapor diffusion at 20 °C, 20% PEG3350 and 0.15 M DL-malic acid pH 7.0; crystals soaked with 10 mM L-Lys, 20 mM L-Orn or 20 mM L-Arg; tetramer (two biological dimers) in the asymmetric unit.

We go through eight molecules from paper PMC5832979, “Ligand complex structures of L‐amino acid oxidase/monooxygenase from Pseudomonas sp. AIU 813 and its conformational change” (FEBS Open Bio, 2018).

Consider `Cc1cc2nc3c(=O)[nH]c(=O)nc-3n(C[C@H](O)[C@H](O)[C@H](O)COP(=O)(O)OP(=O)(O)OC[C@H]3O[C@@H](n4cnc5c(N)ncnc54)[C@H](O)[C@@H]3O)c2cc1C` [FAD], for which, on L-AAO/MOG [1], the “X-ray crystal structure, 2.10 Å” value was “FAD and L‐Lys molecules are shown as yellow and magenta sticks”.
Regarding `N=C(N)NCCC[C@H](N)C(=O)O` [L-Arg], on L-AAO/MOG [2], the “X-ray crystal structure, soaking, 2.30 Å” value is “The structures of L‐AAO/MOG complexed with either L‐Lys, L‐Orn, or L‐Arg were determined”.
Turning to `NCCCC[C@H](N)C(=O)O` [L-Lys], the “X-ray crystal structure, soaking, 2.10 Å” value on L-AAO/MOG [3] is “electron density map for a L‐Lys molecule was clearly observed in the substrate binding pocket”.
Regarding `NCCC[C@H](N)C(=O)O` [L-Orn], the “X-ray crystal structure, soaking, 2.00 Å” value on L-AAO/MOG [4] was “The structures of L‐AAO/MOG complexed with either L‐Lys, L‐Orn, or L‐Arg were determined”.
On to “L-AAO/MOG (Pseudomonas sp. AIU 813; D238A)”, for which, in the series on NCCCC[C@H](N)C(=O)O (monooxygenase reaction), the Km stood at 260 ± 20 µM, the kcat is 2.7 ± 0.4 s⁻¹ and the kcat/Km amounted to 10000 ± 1000 M⁻¹ s⁻¹. Moreover, in the series with NCCCC[C@H](N)C(=O)O (oxidase reaction, pH 7.0), the Km was 610 ± 50 µM and the kcat was 0.5 ± 0.03 s⁻¹. Further, in the series with N=C(N)NCCC[C@H](N)C(=O)O, the Km was 410 ± 10 µM, the kcat worked out at 0.1 ± 0.02 s⁻¹ and the kcat/Km came out at 240 ± 60 M⁻¹ s⁻¹.
Consider “L-AAO/MOG (Pseudomonas sp. AIU 813; D238E)”, for which, in the series with NCCCC[C@H](N)C(=O)O (monooxygenase reaction), the Michaelis constant (Km) was 43 ± 1 µM, the kcat came to 8.1 ± 0.6 s⁻¹ and the kcat/Km came to 190000 ± 10000 M⁻¹ s⁻¹. Besides, in the series with NCCCC[C@H](N)C(=O)O (oxidase reaction), the Michaelis constant (Km) is 18 ± 6 µM, the kcat came to 2.3 ± 0.3 s⁻¹ and the kcat/Km amounted to 130000 ± 10000 M⁻¹ s⁻¹.
As to “L-AAO/MOG (Pseudomonas sp. AIU 813; D238F)”, in the series with NCCCC[C@H](N)C(=O)O (monooxygenase reaction), the Michaelis constant (Km) amounted to 72 ± 3 µM, the kcat is 0.8 ± 0.04 s⁻¹ and the kcat/Km turned out to be 11000 ± 1000 M⁻¹ s⁻¹. Moreover, in the series on NCCCC[C@H](N)C(=O)O (oxidase reaction, pH 7.0), the Km was 49 ± 9 µM, the kcat was 0.17 ± 0.01 s⁻¹ and the kcat/Km is 3500 ± 200 M⁻¹ s⁻¹. In the series on N=C(N)NCCC[C@H](N)C(=O)O, the Km came out at 80 ± 18 µM, the catalytic constant (kcat) was found to be 0.1 ± 0.01 s⁻¹ and the kcat/Km was 1300 ± 100 M⁻¹ s⁻¹.

B1: L‐Amino acid oxidase/monooxygenase from Pseudomonas sp. AIU 813 (enzyme)
chain: T1 sequence (W6JQJ6 1-560)
notes: L-amino acid oxidase/monooxygenase (L-AAO/MOG), Pseudomonas sp; AIU 813; FAD-dependent; expression plasmid pET15b-laao/mog; Carries FAD; The biological dimer is chains A-C and B-D of the crystal; also called L‐AAO/MOG; wild‐type enzyme
On to B1, for which the Km in the series “purified protein [5]” (monooxygenase reaction) is 67 ± 5 µM; in the series “purified protein [5]” (oxidase reaction), 48 ± 1 µM; in “purified protein [6]” (monooxygenase reaction) it was 61 ± 6 µM; in the series “purified protein [6]” (oxidase reaction) it was 27 ± 3 µM; in the series “purified protein [7]” (monooxygenase reaction), 33 ± 1 µM; in “purified protein [7]” (oxidase reaction), 22 ± 4 µM. Moreover, the kcat worked out at 1.6 ± 0.2 s⁻¹ in “purified protein [5]” (monooxygenase reaction); 0.41 ± 0.02 s⁻¹ in the series “purified protein [5]” (oxidase reaction); 4.5 ± 0.1 s⁻¹ in “purified protein [6]” (monooxygenase reaction); 0.8 ± 0.09 s⁻¹ in “purified protein [6]” (oxidase reaction); 6.7 s⁻¹ in “purified protein [7]” (monooxygenase reaction); 1.5 s⁻¹ in the series “purified protein [7]” (oxidase reaction). In addition, the kcat/Km in the series “purified protein [5]” (monooxygenase reaction) is 24000 ± 1000 M⁻¹ s⁻¹; in the series “purified protein [5]” (oxidase reaction) it was 8500 ± 650 M⁻¹ s⁻¹; in the series “purified protein [6]” (monooxygenase reaction), 74000 ± 5000 M⁻¹ s⁻¹; in the series “purified protein [6]” (oxidase reaction), 30000 ± 1000 M⁻¹ s⁻¹; in “purified protein [7]” (monooxygenase reaction) it was 200000 M⁻¹ s⁻¹; in the series “purified protein [7]” (oxidase reaction) it was 68000 M⁻¹ s⁻¹. Besides, the binding result in series [8] is listed as “binds”.
